Holding throughout (assay): purified protein, by the assay type
Holding throughout (conditions): other: glucose ester formation; pH 7.0; 30.0 °C

Substrate in data set [1]: O=C(O)C=Cc1ccccc1
Substrate in data set [2]: O=C(O)/C=C/c1ccc(O)cc1
Substrate in data set [3]: COc1cc(/C=C/C(=O)O)ccc1O

This note sets out measurements from patent publication US7335814B2, “Transgenic cells expressing glucosyltransferase nucleic acids” (The University of York, priority 2000, dated 2008).

B1: recombinant GTase A911 (Arabidopsis thaliana) (protein)
chain: MGSSEGQETHVLMVTLPFQGHINPMLKLAKHLSLSSKNLHINLATIESARDLLSTVEKPRYPVDLVFFSDGLPKEDPKAPETLLKSLNKVGAMNLSKIIEEKRYSCIISSPFTPWVPAVAASHNISCAILWIQACGAYSVYYRYYMKTNSFPDLEDLNQTVELPALPLLEVRDLPSFMLPSGGAHFYNLMAEFADCLRYVKWVLVNSFYELESEIIESMADLKPVIPIGPLVSPFLLGDGEEETLDGKNLDFCKSDDCCMEWLDKQARSSVVYISFGSMLETLENQVETIAKALKNRGLPFLWVIRPKEKAQNVAVLQEMVKEGQGVVLEWSPQEKILSHEAISCFVTHCGWNSTMETVVAGVPVVAYPSWTDQPIDARLLVDVFGIGVRMRNDSVDGELKVEEVERCIEAVTEGPAAVDIRRRAAELKRVARLALAPGGSSTRNLDLFISDITIA
Consider B1, for which the Km (in general, the substrate concentration at which the rate is half of its maximum) in data set [1] was 50 µM; in data set [2], 390 µM; in data set [3], 340 µM. In addition, the Vmax in data set [2] amounted to 11.10 nkat/mg.
